Test results: paper PMC7141136, “Ohr and OhrR Are Critical for Organic Peroxide Resistance and Symbiosis in Azorhizobium caulinodans ORS571”

Assays:
Conditions in all cases: protein: recombinant; tags: N-terminal 6xHis (pET-28a); chain copies: 2; label: none (GelRed stain)
[1] = biological target: T1, OhrR C121S (Azorhizobium caulinodans ORS571, UniProt A8IEZ4 1-144, C121S); experiment: EMSA; reducing; 50 mM Tris-HCl pH 8.3, 0.25 M KCl, 2.5 mM DTT, 5 mM MgCl2, 0.05 ug/mL poly(dI-dC), 2.5 mM EDTA, 1% glycerol; 20 nM DNA, 20 uL, 20 min, room temperature; 6% native PAGE in 0.5x TBE
T1 sequence: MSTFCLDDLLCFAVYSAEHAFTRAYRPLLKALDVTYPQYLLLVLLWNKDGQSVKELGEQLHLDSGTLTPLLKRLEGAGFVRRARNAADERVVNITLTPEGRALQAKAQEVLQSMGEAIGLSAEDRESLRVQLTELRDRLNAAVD

[2] = biological target: T2, OhrR C11S (Azorhizobium caulinodans ORS571, UniProt A8IEZ4 1-144, C11S); experiment: as above
T2 sequence: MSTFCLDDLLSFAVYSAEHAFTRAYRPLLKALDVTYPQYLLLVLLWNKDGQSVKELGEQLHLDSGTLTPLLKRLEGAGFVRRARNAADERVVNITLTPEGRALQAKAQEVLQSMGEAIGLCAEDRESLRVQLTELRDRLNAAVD

[3] = biological target: T3, OhrR C11S C121S (Azorhizobium caulinodans ORS571, UniProt A8IEZ4 1-144, C11S;C121S); experiment: EMSA; CuOOH; binding not affected; 50 mM Tris-HCl pH 8.3, 0.25 M KCl, 2.5 mM DTT, 5 mM MgCl2, 0.05 ug/mL poly(dI-dC), 2.5 mM EDTA, 1% glycerol; 20 nM DNA, 20 uL, 20 min, room temperature; 6% native PAGE in 0.5x TBE
T3 sequence: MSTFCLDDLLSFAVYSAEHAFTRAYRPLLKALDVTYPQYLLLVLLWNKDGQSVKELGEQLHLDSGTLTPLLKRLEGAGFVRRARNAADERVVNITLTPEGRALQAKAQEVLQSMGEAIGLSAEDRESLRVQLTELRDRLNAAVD

Measured: binding result

B1: ohr promoter probe (181 bp) (dsDNA)
DNA 1: CAAAGGGTTAGTTTTCCGTTGCGGAAGGTTGGGTGATGTTGACGGTGGTCTGCAAAATAAGTTTGACACAATCAAATTGTGTGCTACTTAAATGGCCATGGAAGCGGCTTGGCCGTTTCTCATCGATTTCTCAAGGCACGAGGATCAAGCGATGTCCGTCGATGTGAAGTACACCACCAAG
DNA 2: CTTGGTGGTGTACTTCACATCGACGGACATCGCTTGATCCTCGTGCCTTGAGAAATCGATGAGAAACGGCCAAGCCGCTTCCATGGCCATTTAAGTAGCACACAATTTGATTGTGTCAAACTTATTTTGCAGACCACCGTCAACATCACCCAACCTTCCGCAACGGAAAACTAACCCTTTG
binds: all assays above
